“And” between values parts separate entries of the source, which are not always exact repeats. Equal values may be shown once.
Key:
[1] = Arabidopsis plants; cited from earlier work
Pseudomonads = conditions: Arabidopsis plants; cited from earlier work
Arabidopsis thaliana = test: Drought test: 2 weeks water withdrawal, then rewatering; type: in vivo; conditions: rewatering after 2 weeks water withdrawal
Description: All plant lines were grown for 2 weeks with water prior to the 2 week water withdrawal. (a) Plants having a severe knock down of PDLP5 (pdlp5-1) and PDLP5-m5 plants bolt faster than plants overexpressing PDLP5 (OX) and wild type (WT) plants. (b) Plants overexpressing PDLP5 (OX) revive 3 days post rewatering (DPR). (c) Plants overexpressing PDLP5 (OX) fully recover and 10 days post rewatering (DPR); wild type (WT) plants are dead, and PDLP5-m5 plants continue to survive.
(a) Plants overexpressing PDLP5 (OX), wild type (WT) plants, plants having a severe knock down of PDLP5 (pdlp5-1), and three different PDLP5-m5 plants (T3-4-2, T2-6, and T2-26) which were all grown a different number of days as required to reach same rosette size before water withdrawal. Plants having the same rosette size are referred to as “same day bolting samples.” (b) Same day bolting samples of plants overexpressing PDLP5 (OX), wild type (WT) plants, plants having a severe knock down of PDLP5 (pdlp5-1), and three different PDLP5-m5 plants (T3-4-2, T2-6, and T2-26) at the end of a 2 week water withdrawal. (c) Same day bolting samples of plants overexpressing PDLP5 (OX) and two different PDLP5-m5 plants (T3-4-2 and T2-26) recover fully 3 days post rewatering.
Transgenic T1 plants were selected on basta+plates and homozygous T2 lines were identified by segregation test on T3 plants. For the drought test, homozygous lines were grown in soil for the 2 weeks with watering followed by 2 weeks of water withdrawal. Tolerance to drought stress of the PDLP5-m5 was assessed by the plant growth or death upon resuming watering.
PDLP5-m5 plants were evaluated by exposing them to drought conditions. PDLP-m5 plants were grown under normal conditions with water, water was withdrawn for 2 weeks, and rewatering was commenced. Plants having a severe knock down of PDLP5 (pdlp5-1) and PDLP5-m5 plants bolt faster than plants overexpressing PDLP5 and wild type plants (FIG. 13A). […] The early bolting of the PDLP5-m5 plants appeared to affect plant revival. Therefore, the experiment was repeated using same day bolting samples. Briefly, plants having the same rosette size were used, regardless of the number of days required to achieve that rosette size (FIG. 14A).

LAX3pro:LAX3-YFP = LAX3pro:LAX3-YFP signal in overlying Co cells after gravistimulation; type: in vivo, Arabidopsis thaliana
Description: (A) Seedlings were gravistimulated at 3 days post germination and the LAX3::LAX3-YFP signal was monitored under a confocal microscope from 14 hours post-gravitropic induction through 36 hours post-gravitropic induction at the root bend. Images were selected to show the earliest detection time points. […] Scale bars, 50 μm. (B) Quantification of relative occurrence of LAX3-YFP signal in Co at 22 hours post-gravitropic induction (hpg) based on the data presented in Table 3.
We monitored LAX3-YFP signal accumulation in overlying Co using the gravitropic assay.
Arabidopsis seedlings expressing LAX3::LAX3:YFP in the desired background were grown as described above for three days, followed by gravistimulation by turning the plates 90° . The cortical cell fluorescence at the root bend was monitored at different time points using a Zeiss LSM 780 confocal upright light microscope using a W Plan-Apochromat 20×/1.0 DIC M27 75 mm objective and the […] excitation line of an argon laser with 520-550 nm band pass emission filter. Images are presented as 3-D composites of 30 μm-thick z-stacks.

[2] = test system: lateral root primordia (LRP); test: LRP progression after gravitropic stimulus; type: in vivo, Arabidopsis thaliana; conditions: by 48 hpg
Description: (A) Lateral root development in wild type (WT) plants, plants having a severe knock down of PDLP5 (pdlp5-1), and plants overexpressing PDLP5 (PDLPOE) expressing DR5:GUS. Arrowheads indicate tertiary roots. (B) Quantification of total lateral root numbers (both emerged and unemerged secondary [2°], tertiary [3°], and quaternary [4°] roots). n≧30 per seedling set. Bars, standard deviation. Stars, significance determined by student T-test (P<0.01). (C) A diagram depicting several stages of LRP emergence. (D) Percent distribution of LRP stages, recorded at root bend at indicated time points following gravistimulation at 3 dpg. n≧20 seedlings per set. […]
GUS solution (100 mM sodium phosphate buffer, pH 7.0, 10 mM EDTA, 0.5 mM each potassium ferrocyanide and potassium ferricyanide, 1.24 mM X-Gluc, and 0.1% Triton X-100) was vacuum-infiltrated into plant tissue for five minutes, then removed from vacuum and incubated in 37° C. for 3 to 12 hrs, followed by a series of ethanol washes. […] LRP were quantified by counting both the emerged LR and unemerged LR, as determined by DRS::GUS staining of the primordia, under a dissecting microscope (1.2× magnification). LRP stages were determined by examining ethanol-cleared, GUS-stained tissue using 40× water lens.

plasmodesmata (PD) = conditions: Arabidopsis plants; cited from earlier work
[3] = 22 hours post-gravitropic stimulation

B1: PDLP5OE: Wild-type A. thaliana PDLP5 protein (SEQ ID NO:4) constitutively overexpressed in plants under the 35S promoter (protein, listed as Arabidopsis thaliana)
chain: MIKTKTTSLLCFLLTAVILMNPSSSSPTDNYIYAVCSPAKFSPSSGYETNLNSLLSSFVTSTAQTRYANFTVPTGKPEPTVTVYGIYQCRGDLDPTACSTCVSSAVAQVGALCSNSYSGFLQMENCLIRYDNKSFLGVQDKTLILNKCGQPMEFNDQDALTKASDVIGSLGTGDGSYRTGGNGNVQGVAQCSGDLSTSQCQDCLSDAIGRLKSDCGMAQGGYVYLSKCYARFSVGGSHARQTPGPNFGHEGEKGNKDDNGVGKTLAIIIGIVTLIILLVVFLAFVGKCCRKLQDEKWCK
For B1, the “total SA compared with the wild-type control” value [1] is listed as 15 fold, the immunity to infection (Pseudomonads) is listed as “innate immunity to Pseudomonads infection” and the outcome upon rewatering (Arabidopsis thaliana) is listed as “recovered after rewatering”. The “LAX3pro:LAX3-YFP cortical signal, ratio PDLP5:WT” value (LAX3pro:LAX3-YFP; 24 hpg) was 0.42 and 0.68, the “LAX3pro:LAX3-YFP cortical signal, seedlings” value (LAX3pro:LAX3-YFP; 24 hpg) was 33% and the “LAX3pro:LAX3-YFP cortical signal, ratio PDLP5:WT” value (LAX3pro:LAX3-YFP; 24 hpg, mean) was 0.55. For the same molecule, the “LAX3pro:LAX3-YFP cortical signal, ratio PDLP5:WT” value (LAX3pro:LAX3-YFP; 36 hpg) was 1, the “ratio to WT of seedlings expressing LAX3pro:LAX3-YFP in Co cells” value (LAX3pro:LAX3-YFP; [3]) was 0 and the “seedlings expressing LAX3pro:LAX3-YFP in overlaying Co cells” value (LAX3pro:LAX3-YFP; [3]) was “no fluorescent signals evident”. For the same molecule, the LRP emergence [2] was “none had yet emerged” and the “movement between cells reduced by” value (plasmodesmata (PD)) was 70%.

From patent US20160272995A1, “MANIPULATION OF PLASMODESMAL CONNECTIVITY TO IMPROVE PLANT YIELD AND FITNESS” (UNIVERSITY OF DELAWARE, priority 2013, published 2016)
